Results as given in paper PMC6917914 (Nature chemical biology, 2019).

Molecular target: His6-DDA1 (full-length human DDA1) (human, UniProt Q9BW61 1-102)
Experiment: crystal structure

B1: DCAF15_(split) (Strep II Avi-DCAF15 NTD residues 30-264 with Strep II Avi-DCAF15 CTD residues 383-600) (domain or fragment)
chain 1: GRRREHVLKQLERVKISGQLSPRLFRKLPPRVCVSLKNIVDEDFLYAGHIFLGFSKCGRYVLSYTSSSGDDDFSFYIYHLYWWEFNVHSKLKLVRQVRLFQDEEIYSDLYLTVCEWPSDASKVIVFGFNTRSANGMLMNMMMMSDENHRDIYVSTVAVPPPGRCAACQDASRAHPGDPNAQCLRHGFMLHTKYQVVYPFPTFQPAFQLKKDQVVLLNTSYSLVACAVSVHSAGDR
chain 2: EPGYVNYTKLYYVLESGEGTEPEDELEDDKISLPFVVTDLRGRNLRPMRERTAVQGQYLTVEQLTLDFEYVINEVIRHDATWGHQFCSFSDYDIVILEVCPETNQVLINIGLLLLAFPSPTEEGQLRPKTYHTSLKVAWDLNTGIFETVSVGDLTEVKGQTSGSVWSSYRKSCVDMVMKWLVPESSGRYVNRMTNEALHKGCSLKVLADSERYTWIVL
binding result: binds
